Entries after “also recorded” stand apart in the source; their conditions may differ. Values belong to the molecule of their own block, whether it stands above or below them.
Assays:
[1] = tested on: Arg I RNA in cerebellar neurons; experiment: Arginase I RNA level in cerebellar neurons by RT-PCR and quantitative PCR; format: cell-based; conditions: overnight dbcAMP 1 mM or BDNF 200 ng/ml; P<0.005
Procedure: FIG. 4: Priming Neurons With Brain Derived Neurotrophic Factor (BDNF) or Dibutyryl (db) cAMP Up-Regulates Arginase I RNA Levels In Cerebellar Neurons. RNA isolated from cerebellar neurons without treatment (lane 2), from cerebellar neurons exposed overnight to either BDNF (200 ng/ml) (lane 3) or dbcAMP (1 mM) (lane 4), was reverse, transcribed and subjected to (A) semi-quantitative PCR; or (B) quantitative PM; using primers specific for arginase I. As a positive control, RNA isolated from liver tissue was subjected to RT PCR and quantitative PCR procedures using the same primers ((A), lane 1; (B), “Liver”)
To determine whether elevated cAMP levels causes an up-regulation of arginase expression, cerebellar neurons were primed with neurotrophins (BDNF) or dbcAMP (Example 1), and RNA and protein was extracted from primed neurons (Example 2). The extracted RNA was used as a template for reverse transcription and PCR amplification using primers specific for the gene encoding the enzyme arginase I (“Arg I”), an isoform of arginase abundant in liver tissue but barely detectable in other tissues.
Cerebellar neurons were primed with neurotrophins (BDNF, GDNF) or dbcAMP according to the procedures in Example 1. […]
Finally, ArgI amplified cDNA samples were detected by electrophoretic separation on a 1% agarose gel and staining with ethidium bromide.

[2] = tested on: cerebellar neurons on MAG-expressing CHO cells; experiment: Neurite outgrowth of cerebellar neurons on MAG-expressing or control CHO cells; format: cell-based; conditions: for block of inhibition of neurite growth by MAG after priming: neurons primed overnight with neurotrophin 200 ng/ml, then transferred to CHO monolayers
Procedure: FIG. 2: Improved Axonal Growth on MAG Induced By Elevating cAMP Levels is Transcription-Dependent. (A) Isolated cerebellar neurons at a density of 20,000 neurons per well were plated onto a monolayer of either MAG-expressing Chinese hamster ovary (CHO) cells (striped bars) or control CHO cells (black bars) and cultured overnight before being fixed and immunostained for GAP43 to visualize the neurites. The length of the longest neurite per neuron, from 180-200 neurons, was measured and results are the average length+/−SEM. Where indicated, dibutyryl cAMP (dbcA) at 1 mM in the presence or absence of the inhibitor of transcription, 5,6-dichloro-1-b-D-ribofuranosylbenzimidazole (DRB) at 5 μM, was added to each culture. (B) Cerebellar neurons (1×10^6) were plated onto poly-L-lysine and cultured overnight with brain-derived neurotrophic factor (BDNF) at 200 ng/ml, (termed priming) in the presence or absence of DRB at 5 μM, before being transferred to the CHO cell monolayers.
FIG. 6: An Ornithine Decarboxylase (ODC) Inhibitor Abrogates the Blocking Effect of dbcAMP on the Inhibition of Axonal Outgrowth by MAG and Myelin. […] The longest neurite from at least 180-200 neurons were measured. Results are shown as the mean neurite length+/−SEM.
After further incubation, neurons were fixed and immunostained for GAP43. The longest neurite from each neuron for 180-200 neurons were measured. Results are shown as the mean neurite length+/−SEM.
FIG. 8: An Inhibitor Of ODC Blocks The Priming Effects Of GDNF On The Inhibition By MAG. […] After further incubation, neurons were fixed and immunostained for GAP43. The longest neurite from each neuron for 180-200 neurons were measured. Results are shown as the mean neurite length±SEM.
Primed neurons were transferred to either MAG-expressing or control CHO cells (A) or a substrate of CNS myelin (B) for further incubation. Neurons were then fixed and immunostained for GAP43. The longest neurite from each neuron was measured for 180-200 neurons. Results are shown as the percentage of control. […]
Neurons were isolated essentially as described in Doherty at al., Nature, 343, pp. 464-66 (1990); Neuron, 5, pp. 209-19 (1990); and Kleitman at al., Culturing Nerve Cells, pp. 337-78, MIT Press, Cambridge, Mass./London, England (G. Banker and K Goslin, Eds.) (1991). Briefly, for animals up to nine days of age, the cerebellum, from two animals were removed and combined in 5 ml of 0.025% trypsin in PBS, triturated, and incubated for a further 10 minutes (min.) at 37° C. Trypsinization was stopped by addition of 5 ml DMEM containing 10% fetal calf serum (FCS) and cells were centrifuged at 800 rpm for 6 min. […] For older DRG neurons, ganglia were removed from two animals and incubated in 5 ml of Sat medium containing 0.025% trypsin and 0.15% collagenase type I (Worthington) for 30 min. at 37° C. The ganglia were triturated with a fire-polished Pasteur pipette. Trypsinization was stopped by adding 5 ml of DMEM containing 10% FCS, centrifuged at 800 rpm for 6 min, and resuspended in 2 ml of SAT (DeBellard et al., 1996). Cells were counted with a Coulter counter.
Chinese hamster ovary (CHO) cells deficient in the dihydrofolate reductase (dhfr) gene (Urlaub and Chasin, Proc. Natl, Acad, Sci. 77, pp. 4216-20 (1980)) were transfected with a MAG-cDNA expression plasmid with the dhfr gene and the L-MAG cDNA, cells with multiple copies of dbfr were selected by growing in increasing concentrations of methotrexate, and the expression of MAG by individual transfected CHO cell lines characterized as described in Mukhopadhyay et al., Neuron, 13, pp. 757-67 (1994), which is incorporated herein by reference. The MAG-expressing transfected CHO cell line) (“CHO-MAG2”) in that publication was deposited on Jun. 27, 1996 with the American Type Culture Collection (ATCC) (Rockville, Md.) according to the provisions of the Budapest Treaty, and was assigned the ATCC accession number designated: ATCC CRL-12145. […]

Molecule: CCCC(=O)Nc1ncnc2c1ncn2[C@@H]1O[C@@H]2COP(=O)(O)O[C@H]2[C@H]1OC(=O)CCC [dbcAMP, dibutyryl cAMP]
increase in amount of Arg I RNA by quantitative PCR [1]: about 50%
block of inhibition of neurite growth by MAG ([2]; agent added directly to the co-culture (dbcAMP 1 mM), overnight): blocks inhibition of neuronal growth by MAG; also recorded: blocks the inhibition of neurite growth by MAG

increase in amount of Arg I RNA by quantitative PCR [1]: about 50%
B1: BDNF: Brain-derived neurotrophic factor, Trk-family neurotrophin (protein, UniProt P23560 19-247, looked up)
Neurotrophic factor BDNF …: APMKEANIRGQGGLAYPGVRTHGTLESVNGPKAGSRGLTSLADTFEHVIEELLDEDQKVRPNEENNKDADLYTSRVMLSSQVPLEPPLLFLLEEYKNYLDAANMSMRVRRHSDPARRGELSVCDSISEWVTAADKKTAVDMSGGTVTVLEKVPVSKGQLKQYFYETKCNPMGYTKEGCRGIDKRHWNSQCRTTQSYVRALTMDSKKRIGWRFIRIDTSCVCTLTIKRGR
block of inhibition of neurite growth by MAG after priming [2]: blocks inhibition of neuronal growth by MAG; also recorded: blocked the inhibition by MAG

B2: GDNF: glial cell line-derived neurotrophic factor (protein, UniProt P39905 78-211, looked up)
Glial cell line-derived …: SPDKQMAVLPRRERNRQAAAANPENSRGKGRRGQRGKNRGCVLTAIHLNVTDLGLGYETKEELIFRYCSGSCDAAETTYDKILKNLSRNRRLVSDKVGQACCRPIAFDDDLSFLDDNLVYHILRKHSAKRCGCI
block of inhibition of neurite growth by MAG after priming [2]: overcomes inhibition of regeneration by MAG and myelin
